T1: Sox10 (rat, UniProt O55170 1-466)
T1 sequence (looked up): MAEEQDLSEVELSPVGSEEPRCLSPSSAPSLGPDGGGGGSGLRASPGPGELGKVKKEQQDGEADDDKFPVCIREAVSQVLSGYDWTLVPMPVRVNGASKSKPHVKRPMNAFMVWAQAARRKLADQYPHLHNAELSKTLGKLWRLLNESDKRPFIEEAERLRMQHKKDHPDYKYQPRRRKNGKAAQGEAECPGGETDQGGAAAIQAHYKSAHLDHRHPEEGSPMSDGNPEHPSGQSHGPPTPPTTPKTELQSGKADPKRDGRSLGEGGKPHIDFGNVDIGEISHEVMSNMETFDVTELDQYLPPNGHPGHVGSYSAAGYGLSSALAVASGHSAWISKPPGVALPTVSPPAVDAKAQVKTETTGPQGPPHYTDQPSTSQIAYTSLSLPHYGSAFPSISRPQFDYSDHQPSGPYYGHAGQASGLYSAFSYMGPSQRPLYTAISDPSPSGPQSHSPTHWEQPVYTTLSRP


Biological target: T1, Sox10
Assay: cell-based or functional assay

Row | Binder | luciferase transactivation of the Phox2b promoter by Sox10 in HeLa cells with Twist1 co-expressed (Sox10 alone 48.9+/−2.2-fold) | luciferase transactivation of the Phox2b promoter by Sox10 in HeLa cells with Twist1 S192P co-expressed (Sox10 alone 48.9+/−2.2-fold)
1 | Twist1 (natural protein, UniProt P26687 1-206, looked up) MMQDVSSSPVSPADDSLSNSEEEPDRQQPASGKRGARKRRSSRRSAGGSAGPGGATGGGIGGGDEPGSPAQGKRGKKSAGGGGGGGAGGGGGGGGGSSSGGGSPQSYEELQTQRVMANVRERQRTQSLNEAFAALRKIIPTLPSDKLSKIQTLKLAARYIDFLYQVLQSDELDSKMASCSYVAHERLSYAFSVWRMEGAWSMSASH | 26.3 fold | –
2 | Twist1 S192P (natural protein, UniProt P26687 1-206, looked up) MMQDVSSSPVSPADDSLSNSEEEPDRQQPASGKRGARKRRSSRRSAGGSAGPGGATGGGIGGGDEPGSPAQGKRGKKSAGGGGGGGAGGGGGGGGGSSSGGGSPQSYEELQTQRVMANVRERQRTQSLNEAFAALRKIIPTLPSDKLSKIQTLKLAARYIDFLYQVLQSDELDSKMASCSYVAHERLSYAFPVWRMEGAWSMSASH | – | 49.3 fold
